For assay [1], the system named is RAW 264.7 cells. Description: LPS-induced NO production in RAW 264.7 cells (Griess reagent). The note with it: pre-incubated with LPS, 6 hours incubation (FIG. 1B). It is filed as cell-based, murine. On the procedure:
Human leukemia monocytic THP-1 cells and murine macrophage cell line RAW 264.7 were obtained from the American Type Culture Collection. THP-1 cells were grown in suspension in RPMI-1640 supplemented with 10 mM HEPES, 1 mM sodium pyruvate, 0.1% β-mercaptoethanol, 100 U/ml penicillin, 100 µg/ml streptomycin, and 10% fetal bovine serum (FBS). RAW 264.7 cells were grown as an adhered layer in Dulbecco's modified Eagle's medium with 4 mM L-glutamine adjusted to contain 1.5 g/l sodium bicarbonate and 4.5 g/l glucose, 100 U/ml penicillin, […] streptomycin, and 10% FBS under a humidified 5% CO2 atmosphere at 37° C. For differentiation, THP-1 cells were plated in medium containing 10 nM PMA and allowed to adhere for 18 h.
(§1) TNF-α in conditioned medium or mouse serum was measured by an enzyme-linked immunosorbent assay (ELISA) (R&D Systems, Minneapolis, Minn.). Accumulation of nitrite in the medium or mouse serum was determined by a colorimetric assay using Griess reagent (Sigma-Aldrich). Blood urea nitrogen (BUN) and creatinine were measured with a Roche D&P modular (Roche Diagnostic Systems, Branchburg, N.J.). Assays were performed according to the manufacturer's protocol.

Assay [2] has as its system K. pneumoniae. As to the kind of experiment: K. pneumoniae (5×10^2 CFU/mouse) systemic sepsis model in mice. It is filed as in vivo, Male FVB mice. How it is done:
as §1
(§2) Male FVB mice (8-10 weeks old) were used to model sepsis in vivo. The Institutional Animal Care and Use Committee of the National Cheng Kung University approved procedures. In the chronic endotoxemia model, various concentrations of rTMD1 or rTMD proteins in equi-molar amounts were administrated by tail intravenous (i.v.) injection and LPS (20 mg/kg) or K. pneumoniae (5×10^2 CFU/mouse, BCRC) was administrated by intraperitoneal (i.p.) injection. After 6 or 12 hours, mice were sacrificed by pentobarbital anesthesia (50 mg/kg; i.p.). Sera were collected and assayed for TNF-α, NO, BUN, and creatinine, and lung and kidney tissues were removed, fixed with formalin, and embedded in paraffin for histochemical examination. In the lethal sepsis model, rTMD1 (2 mg/kg, equals 87.3 nmole/kg) was i.v.-administrated at 0, 6, 12, and 24 hours after i.p. administration of LPS (40 mg/kg). The half-life of rTMD1 in the circulation was determined by i.v. injection of rTMD1 (10 mg/kg, equals 436.64 nmole/kg) and serum samples were collected at various time intervals. The levels of rTMD1 in the collected sera were determined by a sandwich ELISA which employed anti-c-Myc monoclonal antibody and TM-H300 as capture and detection antibodies (both from Santa Cruz Biotechnology), respectively. […] Mortality was monitored every 6-12 hours until all mice in either experimental group died. Experimental procedure of determining LPS half-life is as following. LPS (20 mg/kg) was i.p.-administrated to male FVB mice without or with rTMD1 (10 mg/kg; i.v.). Serum samples were collected at various time intervals and the amount of LPS was determined by Limulus amebocyte lysate test (Associates of Cape Cod, E. Falmouth, Mass.). A further experiment was performed to determine whether rTMD1 affects bacterial clearance. K. pneumoniae (5×10^2 CFU/mouse) was i.p.-administrated to male FVB mice without or with rTMD1 (10 mg/kg; i.v.), and blood samples were collected at various time intervals. Outgrowth of K. pneumoniae was quantified by plating serial dilutions of blood samples on blood agar plates and enumerating colonies after overnight incubation at 37° C.

Assay [3] has as its system K. pneumoniae. As to the kind of experiment: K. pneumoniae clearance in circulation (viable CFU counts in blood). It is filed as in vivo, male FVB mice. On the procedure:
as §2, with “Sera were collected and assayed for TNF-α, NO, BUN, and creatinine, and lung and kidney tissues were removed, fixed with formalin, and embedded in paraffin for histochemical examination. In the lethal sepsis model, rTMD1 (2 mg/kg, equals 87.3 nmole/kg) was i.v.-administrated at 0, 6, 12, and 24 hours after i.p. administration of LPS (40 mg/kg).” left out, “Experimental procedure of determining LPS half-life is as following. LPS (20 mg/kg) was i.p.-administrated to male FVB mice without or with rTMD1 (10 mg/kg; i.v.).” left out, “A further experiment was performed to determine whether rTMD1 affects bacterial clearance. K. pneumoniae (5×10^2 CFU/mouse) was i.p.-administrated to male FVB mice without or with rTMD1 (10 mg/kg; i.v.), and blood samples were collected at various time intervals.” left out

[4] abbreviates: rTMD1 5-25 mg/kg i.v., 12 hours, 5×10^2 CFU.

B1: rTMD1: recombinant human thrombomodulin N-terminal lectin-like domain (residues Ala1-Ala155) with 6×His tag and c-Myc epitope, Pichia pastoris expressed (protein)
chain: EFAPAEPQPGGSQCVEHDCFALYPGPATFLNASQICDGLRGHLMTVRSSVAADVISLLLNGDGGVGRRRLWIGLQLPPGCGDPKRLGPLRGFQWVTGDNNTSYSRWARLDLNGAPLCGPLCVAVSAAEATVPSEPIWEEQQCEVKADGFLCEFHFPAYLEDDDDKIEQKLISEEDLNSAVDHHHHHH
modifications: left off: small tags and cut ends
Turning to B1, the “NO production in RAW 264.7 cells” value in assay [1] is recorded as “effectively inhibit”. Moreover, the “survival, post-treatment” value in assay [2] (all rTMD1-treated groups vs infected mice without rTMD1) is listed as “improved”. The “K. pneumoniae-induced TNF-α release, post-treatment” value in assay [2] (rTMD1 10 mg/kg i.v. immediately, 30 or 60 minutes after K. pneumoniae) is on record as “effectively suppress”. In assay [2] (setting [4]), the “NO production in K. pneumoniae-infected mice” value was “effectively reduced” and the “TNF-α production in K. pneumoniae-infected mice” value is listed as “effectively reduced”. In assay [3] (12, 24, 36 hours after infection, rTMD1 given up to 30 or 60 minutes after infection), the “K. pneumoniae clearance in circulation, post-treatment” value is on record as “enhance”. For the same molecule, the “K. pneumoniae clearance in circulation” value in assay [3] (12, 24, and 36 hours after injection, rTMD1 10 mg/kg i.v., 5×10^2 CFU) is “significantly enhanced”.

The record behind these values is patent publication US20120165244A1, “METHODS FOR BINDING LEWIS Y ANTIGEN” (priority 2008, published 2012).
